Source: PMC4751602

Tests used:
GST-hnRNP-Q1 = target: T1, GST-hnRNP-Q1 (UniProt O60506-3 1-562); assay: biotin pull-down, GST immunoblot
T1 sequence: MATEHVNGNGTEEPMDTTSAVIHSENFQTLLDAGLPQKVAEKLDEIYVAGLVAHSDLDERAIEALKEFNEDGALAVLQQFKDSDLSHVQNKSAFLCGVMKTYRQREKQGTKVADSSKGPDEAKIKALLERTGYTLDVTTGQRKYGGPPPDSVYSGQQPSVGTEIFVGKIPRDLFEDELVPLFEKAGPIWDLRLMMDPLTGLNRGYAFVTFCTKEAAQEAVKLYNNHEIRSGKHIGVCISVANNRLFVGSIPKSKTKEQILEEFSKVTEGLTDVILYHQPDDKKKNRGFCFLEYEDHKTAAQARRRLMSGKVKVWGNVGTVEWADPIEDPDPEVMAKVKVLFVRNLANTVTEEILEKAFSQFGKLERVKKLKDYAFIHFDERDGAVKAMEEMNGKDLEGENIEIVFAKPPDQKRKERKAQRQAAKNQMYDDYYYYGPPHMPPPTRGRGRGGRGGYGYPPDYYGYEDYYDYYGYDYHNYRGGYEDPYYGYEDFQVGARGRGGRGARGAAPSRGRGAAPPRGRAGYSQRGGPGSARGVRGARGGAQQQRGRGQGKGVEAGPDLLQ

hnRNP-Q1 RGG box peptide = target: T2, hnRNP-Q1 RGG box peptide (UniProt O60506-3 406-561); assay: fluorescence spectroscopy
T2 sequence: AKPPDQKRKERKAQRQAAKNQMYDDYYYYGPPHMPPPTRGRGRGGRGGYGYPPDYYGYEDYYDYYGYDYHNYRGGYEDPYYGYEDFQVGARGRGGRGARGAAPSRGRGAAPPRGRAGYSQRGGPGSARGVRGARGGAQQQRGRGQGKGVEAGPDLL

GGGAGGGAGGGAGGGA (structured_RNA) [Gap-43 5'GQ (5' biotin)]
binding result (GST-hnRNP-Q1): binds

GGGAGGGAGGGAGGGAGAGC (structured_RNA, 2-aminopurine replaces A4) [2AP Gap-43 5'GQ RNA]
Kd (hnRNP-Q1 RGG box peptide): 131 ± 14 nM
